The values below come from US20130130347, “CONSTRUCTS AND METHODS FOR THE ASSEMBLY OF BIOLOGICAL PATHWAYS” (CORNELL UNIVERSITY, published 2013).

The target in data set [1] is cYFP-Zif268 chimera. As to the kind of experiment: EMSA; full oligo sequence not given; text states low nanomolar affinity without values.
Another data set concerns the target MBP-ZFa (OZ052) (artificial). As to the kind of experiment: EMSA; biotinylated oligo, flanks not given; chimera-DNA dimer also seen; text states low nanomolar affinity without values. The following applies: label: 5'-biotin. Here is the method: (§1) From this analysis, the amount of ZF-chimera present in cells was estimated at approximately 5000 per cell or 8 μM. The plasmid concentration in cells was determined to be approximately 127 per cell or […]. These values were used to design/select ZF domains with appropriate affinity and to design DNA scaffolds with enough binding sites to accommodate all ZF fusion proteins. FIG. 4B is a western blot analysis comparing the soluble and insoluble protein levels of unmodified MBP with MBP fused to 1, 2, 3 or 4 fingers as indicated. Flow cytometric analysis of cellular fluorescence levels of superfolder green fluorescent protein (sfGFP) fused to increasing number of fingers as indicated (FIG. 4B; right). FIG. 4C is an EMSA of purified PBSII-nYFP and cYFP-Zif268 chimeras using […] DNA with PBSII or Zif268 binding sites. MW, molecular weight ladder. Arrow indicates chimera-DNA complexes. EMSA of purified MBP-ZFa, MBP-ZFb and MBP-ZFc chimeras using varying amounts of biotinylated DNA containing the ZFa, ZFb or ZFc binding site is shown in FIG. 4D. Detection of DNA and DNA-protein complexes was with streptavidin-HRP against biotinylated DNA. […]
(§2) For EMSA with PBSII and Zif268, 1 μg of the purified PBSII-nYFP and cYFP-Zif268 chimeras were incubated with 375 μM scaffold DNA for 3 h. […] Nucleic acid-protein complexes were detected under UV light. […]

Data set [2] addresses cYFP-Zif268 chimera. Nature of the data set: SPR; random scaffold reference, 1 uM protein; used to correct for unspecific binding.
The target of the next data set is MBP-ZFb (OZ300) (artificial). As to the kind of experiment: EMSA; biotinylated oligo, flanks not given; text states low nanomolar affinity without values. The following applies: label: 5'-biotin. Here is the method: as §1, §2
Data set [3] addresses PBSII-nYFP chimera (artificial). As to the kind of experiment: SPR; injected as mixture with cYFP-Zif268, 5 uM; same SPR buffer with 0.1 mM ZnCl2. As to conditions: tags: nYFP C-terminal fusion, His. Here is the method: Proteins that were directly dialyzed against buffer A (see above) were used in surface plasmon resonance (SPR) experiments. Proteins were further concentrated using Amicon Ultra-15 Centrifugal Filter Unit with Ultracel-10 membrane. The experiments were conducted using T100 apparatus (GE Healthcare, Biacore) and streptavidin-coated sensor chip (SA). […] The biotinylated single-stranded anchor DNA (5′-CGCTCGAGTAGTAAC-3′-Biotin; SEQ ID NO: 41) was immobilized on all four flow-cells. The anchor allowed capture of the double-stranded DNA molecule with complementary overhang. A DNA scaffold (5′-[…]-3′; SEQ ID NO: 42) was used that contained ZF binding sites for Zif268 and PBSII (underlined), respectively. Control DNA (5′-[…]-3′; SEQ ID NO: 43) contained a scrambled version of the scaffold and was used to correct the responses for unspecific binding of ZF chimeras. The control DNA was immobilized in the first flow-cell, while the DNA scaffold was used in the second flow cell. Typically, immobilization of control and scaffold DNA used 0.5 μM DNA and was performed for 5 min at 5 μl/min. Protein binding was measured following injection of appropriate concentration of PBSII-nYFP and/or cYFP-Zif268 chimeras in the SPR buffer. The surface of the sensor chip was regenerated by two 30 s injections of 50 mM NaOH that removed the DNA from the anchor.

The target of data set [4] is cYFP-Zif268 chimera. Nature of the data set: SPR; 20 mM HEPES pH 7.4, 150 mM NaCl, 2 mM DTT, 0.1 mM ZnCl2; 1 and 5 uM protein.
In another data set the target is MBP-ZFc (OZ076) (artificial). Nature of the data set: EMSA; biotinylated oligo, flanks not given; text states low nanomolar affinity without values. The following applies: label: 5'-biotin. Here is the method: as §1, §2
Data set [5] has as its target PBSII-nYFP chimera (artificial). Nature of the data set: EMSA; full oligo sequence not given; text states low nanomolar affinity without values. The following applies: tags: nYFP C-terminal fusion, His.

Sequence of PBSII-nYFP chimera (artificial) (chain, as listed by the source mutant): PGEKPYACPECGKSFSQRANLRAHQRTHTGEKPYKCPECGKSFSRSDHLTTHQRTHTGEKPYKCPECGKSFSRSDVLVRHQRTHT
Sequence of MBP-ZFc (OZ076) (artificial) (chain, as listed by the source): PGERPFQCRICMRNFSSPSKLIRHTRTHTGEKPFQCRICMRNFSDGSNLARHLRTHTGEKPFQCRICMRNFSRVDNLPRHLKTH
Sequence of MBP-ZFb (OZ300) (artificial) (chain, as listed by the source): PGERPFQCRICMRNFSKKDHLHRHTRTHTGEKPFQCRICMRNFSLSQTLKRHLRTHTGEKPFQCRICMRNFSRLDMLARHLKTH
Sequence of MBP-ZFa (OZ052) (artificial) (chain, as listed by the source): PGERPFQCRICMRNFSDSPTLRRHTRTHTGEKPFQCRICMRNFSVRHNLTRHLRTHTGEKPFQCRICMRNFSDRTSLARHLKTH

B1: Zif268 binding site DNA (dsDNA)
DNA 1: GCGTGGGCG
DNA 2: CGCCCACGC
As for B1, in the data set with cYFP-Zif268 chimera [1], the binding result was “binds”.

B2: ZFa binding site DNA (dsDNA)
DNA 1: GTCGATGCC
DNA 2: GGCATCGAC
B2: the binding result with MBP-ZFa (OZ052) is “binds”.

B3: scrambled control scaffold (dsDNA)
DNA 1: GTTACTACTCGAGCGGAATTCATCTAAGTTACTAGAGTCCTTATAGTTGACTCTTGTTCCACATTCTACTGTACACGCTCAGTACTCGAGCATACCTATCTCCTGCAGTACA
DNA 2: TGTACTGCAGGAGATAGGTATGCTCGAGTACTGAGCGTGTACAGTAGAATGTGGAACAAGAGTCAACTATAAGGACTCTAGTAACTTAGATGAATTCCGCTCGAGTAGTAAC
Take B3: the binding result with cYFP-Zif268 chimera [2] is listed as “no binding”.

B4: ZFb binding site DNA (dsDNA)
DNA 1: GCGGCTGGG
DNA 2: CCCAGCCGC
Turning to B4, in the data set with MBP-ZFb (OZ300), the binding result is on record as “binds”.

B5: DNA scaffold with Zif268 and PBSII sites, 2-bp spacer (dsDNA)
DNA 1: GTTACTACTCGAGCGATCGGAATTCGAAGGGGAATTGCTGCTGCGGTGTTTGGATGGAGCGTGGGCGGGGTGTGGAAATTGATGCTGCATTGACCACCCAAGACGACTGCAGTACA
DNA 2: TGTACTGCAGTCGTCTTGGGTGGTCAATGCAGCATCAATTTCCACACCCCGCCCACGCTCCATCCAAACACCGCAGCAGCAATTCCCCTTCGAATTCCGATCGCTCGAGTAGTAAC
With B5, the binding result with PBSII-nYFP chimera [3] and in the data set with cYFP-Zif268 chimera [4] was “binds” each time.

B6: ZFc binding site DNA (dsDNA)
DNA 1: GAGGACGGC
DNA 2: GCCGTCCTC
As for B6, the binding result with MBP-ZFc (OZ076) is “binds”.

B7: PBSII binding site DNA (dsDNA)
DNA 1: GTGTGGAAA
DNA 2: TTTCCACAC
Take B7: the binding result in the data set with PBSII-nYFP chimera [5] is listed as “binds”.
